Experimental data as given in US20250263489A1 (TEIJIN PHARMA, published 2025).
Positions count from the first letter of the chain named.

B1: mouse parent antibody IGF11-16 (antibody, mouse IgG1, kappa, V domains shown)
VH: QIQLQQPGAELVKPGASVKLSCKAPGYTFTSYWMHWVKQRPGQGLEWIGETNPSNSVTNYNEKFKSKATLTVDKSSSTAYMQLSSLTSEDSAVYYCTIGRGRGFAYWGQGTLVTVSA
VL: DIQMNQSPSSLSASLGDTITITCRASQNINFWLSWCQQKPGNIPKLLIYKASNLHTGVPSRFSGSGSGTDFTLTISSLQPEDIATYYCLQGQSYPYTFGGGTKLEIKR
B2: FW1_var9 antibody (antibody, V domains shown)
VH: QVQLVQSGAEVKKPGASVKVSCKASGYTFTSYWMHWVRQAPGQGLEWMGETNPSNSVTNYAQKFQGRVTLTVDTSTSTAYMELSSLRSEDTAVYYCTIGRGRGFAYWGQGTLVTVSS
VL: DIQMTQSPSSVSASVGDRVTITCRASQNINFWLSWYQQKPGKAPKLLIYKASNLHTGVPSRFSGSGSGTDFTLTISSLQPEDFATYYCLQGQSYPYTFGGGTKLEIK
B3: FW2_var2 antibody (antibody, V domains shown)
VH: B2 VH with A16S, T74K
VL: B2 VL with V11L, A43I, F83V
B4: FW1_var10 antibody (antibody, V domains shown)
VH: B2 VH with V93T
VL: B2 VL
B5: FW1_var14 antibody (antibody, V domains shown)
VH: B2 VH with V93T
VL: B2 VL with K45R
B6: FW1_var1 antibody (antibody, V domains shown)
VH: B2 VH
VL: B2 VL with Y36C, A43I
B7: FW1_var10_NEKS (antibody, human IgG4, V domains shown)
VH: B2 VH with A61N, Q62E, Q65K, G66S, V93T
VL: B2 VL
B8: FW1_var14_NEKS (antibody, human IgG4, V domains shown)
VH: B2 VH with A61N, Q62E, Q65K, G66S, V93T
VL: B2 VL with K45R
B9: FW1-var9-mFR-H1 (antibody, V domains shown)
VH: B2 VH with V2I, V5Q, S7P, V11L, K12V, V20L, S25P
VL: B2 VL
B10: FW1-var9-mFR-L2 + L3 (antibody, V domains shown)
VH: B2 VH
VL: B2 VL with K42N, A43I, F83I
B11: FW1-var9-mFR-L1 (antibody, V domains shown)
VH: B2 VH
VL: B2 VL with T5N, V11L, V15L, R18T, V19I
B12: FW1-var9-mFR-H2 (antibody, V domains shown)
VH: B2 VH with R38K, A40R, M48I
VL: B2 VL
B13: FW1-var9-mFR-H3 (antibody, V domains shown)
VH: B2 VH with T74K, T76S, E82Q, R87T, T91S, S117A
VL: B2 VL
B14: FW1_var9-hH3a (antibody, V domains shown)
VH: B2 VH with S7P
VL: B2 VL
B15: FW1_var9-hH7a (antibody, V domains shown)
VH: B2 VH with S25P
VL: B2 VL
B16: FW1_var9-hH2a (antibody, V domains shown)
VH: B2 VH with V5Q
VL: B2 VL
B17: FW1_var9-hH1a (antibody, V domains shown)
VH: B2 VH with V2I
VL: B2 VL
B18: FW1_var9-hH5a (antibody, V domains shown)
VH: B2 VH with K12V
VL: B2 VL
B19: FW1_var9-hH4a (antibody, V domains shown)
VH: B2 VH with V11L
VL: B2 VL
B20: FW1_var9-hH6a (antibody, V domains shown)
VH: B2 VH with V20L
VL: B2 VL
B21: IGF11-16 with alanine substitution of H at position 35 (CDR-H1) (antibody, mouse IgG1, V domains shown)
VH: B1 VH with H35A
VL: B2 VL with T5N, V11L, V15L, R18T, V19I, Y36C, K42N, A43I, F83I
B22: IGF11-16 with alanine substitution of S at position 56 (CDR-H2) (antibody, mouse IgG1, V domains shown)
VH: B1 VH with S56A
VL: B2 VL with T5N, V11L, V15L, R18T, V19I, Y36C, K42N, A43I, F83I
B23: IGF11-16 with alanine substitution of R at position 102 (CDR-H3) (antibody, mouse IgG1, V domains shown)
VH: B1 VH with R102A
VL: B2 VL with T5N, V11L, V15L, R18T, V19I, Y36C, K42N, A43I, F83I
B24: IGF11-16 with alanine substitution of N at position 59 (CDR-H2) (antibody, mouse IgG1, V domains shown)
VH: B1 VH with N59A
VL: B2 VL with T5N, V11L, V15L, R18T, V19I, Y36C, K42N, A43I, F83I
B25: IGF11-16 with alanine substitution of F at position 64 (CDR-H2) (antibody, mouse IgG1, V domains shown)
VH: B1 VH with F64A
VL: B2 VL with T5N, V11L, V15L, R18T, V19I, Y36C, K42N, A43I, F83I
B26: IGF11-16 with alanine substitution of N at position 52 (CDR-H2) (antibody, mouse IgG1, V domains shown)
VH: B1 VH with N52A
VL: B2 VL with T5N, V11L, V15L, R18T, V19I, Y36C, K42N, A43I, F83I
B27: IGF11-16 with alanine substitution of S at position 54 (CDR-H2) (antibody, mouse IgG1, V domains shown)
VH: B1 VH with S54A
VL: B2 VL with T5N, V11L, V15L, R18T, V19I, Y36C, K42N, A43I, F83I
B28: IGF11-16 with alanine substitution of N at position 55 (CDR-H2) (antibody, mouse IgG1, V domains shown)
VH: B1 VH with N55A
VL: B2 VL with T5N, V11L, V15L, R18T, V19I, Y36C, K42N, A43I, F83I
B29: IGF11-16 with alanine substitution of W at position 33 (CDR-H1) (antibody, mouse IgG1, V domains shown)
VH: B1 VH with W33A
VL: B2 VL with T5N, V11L, V15L, R18T, V19I, Y36C, K42N, A43I, F83I

Each binder was assayed against T1, IGF-1 receptor on the cells of the PathHunter IGF1R Functional Assay (DiscoverX) (UniProt P08069 31-1367) (assay: cell-based or functional assay).
T1 sequence (P08069 31-1367): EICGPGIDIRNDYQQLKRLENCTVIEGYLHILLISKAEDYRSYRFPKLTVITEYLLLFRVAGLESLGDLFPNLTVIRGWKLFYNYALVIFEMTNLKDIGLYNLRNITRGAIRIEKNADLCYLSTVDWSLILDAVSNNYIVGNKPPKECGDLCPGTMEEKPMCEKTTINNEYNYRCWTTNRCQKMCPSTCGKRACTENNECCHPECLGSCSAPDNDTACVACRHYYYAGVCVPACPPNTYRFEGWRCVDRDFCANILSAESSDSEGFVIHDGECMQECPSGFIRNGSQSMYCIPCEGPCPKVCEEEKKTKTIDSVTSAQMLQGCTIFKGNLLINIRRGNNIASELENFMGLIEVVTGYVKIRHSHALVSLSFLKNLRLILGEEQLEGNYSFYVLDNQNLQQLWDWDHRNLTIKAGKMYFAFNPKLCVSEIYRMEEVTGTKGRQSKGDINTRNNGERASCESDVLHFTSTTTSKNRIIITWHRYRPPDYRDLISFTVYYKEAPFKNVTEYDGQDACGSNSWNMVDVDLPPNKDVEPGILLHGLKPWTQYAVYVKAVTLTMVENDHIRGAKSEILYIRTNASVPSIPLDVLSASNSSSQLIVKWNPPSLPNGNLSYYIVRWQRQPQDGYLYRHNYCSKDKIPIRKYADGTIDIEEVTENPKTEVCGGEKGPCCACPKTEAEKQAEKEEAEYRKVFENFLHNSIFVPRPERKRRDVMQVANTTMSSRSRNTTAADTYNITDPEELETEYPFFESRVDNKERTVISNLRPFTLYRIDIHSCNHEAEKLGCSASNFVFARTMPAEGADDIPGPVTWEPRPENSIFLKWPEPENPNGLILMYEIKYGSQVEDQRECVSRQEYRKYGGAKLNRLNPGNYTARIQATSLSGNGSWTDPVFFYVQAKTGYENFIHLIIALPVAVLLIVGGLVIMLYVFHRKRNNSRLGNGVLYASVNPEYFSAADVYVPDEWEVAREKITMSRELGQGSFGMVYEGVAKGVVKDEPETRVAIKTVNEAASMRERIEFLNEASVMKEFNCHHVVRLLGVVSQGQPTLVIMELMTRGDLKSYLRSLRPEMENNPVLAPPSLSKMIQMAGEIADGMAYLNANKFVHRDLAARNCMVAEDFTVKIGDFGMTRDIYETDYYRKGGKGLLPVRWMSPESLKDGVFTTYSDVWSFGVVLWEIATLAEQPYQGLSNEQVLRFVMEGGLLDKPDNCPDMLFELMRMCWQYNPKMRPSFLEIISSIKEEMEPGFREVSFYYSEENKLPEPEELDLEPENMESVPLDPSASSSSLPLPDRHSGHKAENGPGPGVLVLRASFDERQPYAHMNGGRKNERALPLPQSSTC

Row | Activation intensity (RLU), PathHunter | Fluorescence intensity (0.1 nM) (RLU), PathHunter | Fluorescence intensity (12.5 nM) (RLU), PathHunter | Ratio of activation intensity, PathHunter | Binder
1 | 2180 RLU | 557 RLU | 2730 RLU | 1 relative to IGF11-16 | B1
2 | 1450 RLU | 591 RLU | 2040 RLU | 0.67 relative to IGF11-16 | B2
3 | 1320 RLU | 572 RLU | 1890 RLU | 0.61 relative to IGF11-16 | B3
4 | 1350 RLU | 516 RLU | 1860 RLU | 0.62 relative to IGF11-16 | B4
5 | 1340 RLU | 558 RLU | 1900 RLU | 0.62 relative to IGF11-16 | B5
6 | 1600 RLU | 555 RLU | 2160 RLU | 0.74 relative to IGF11-16 | B6

Target: T1, IGF-1 receptor on the cells of the …
Experiment: cell-based or functional assay
Remark: another data set of the same source

Row | Activation intensity (RLU), PathHunter | Fluorescence intensity (0.1 nM) (RLU), PathHunter | Fluorescence intensity (12.5 nM) (RLU), PathHunter | Ratio of activation intensity, PathHunter | Binder
7 | 3570 RLU | 230 RLU | 3800 RLU | 1 relative to IGF11-16 | B1
8 | 1960 RLU | 223 RLU | 2190 RLU | 0.55 relative to IGF11-16 | B7
9 | 1740 RLU | 221 RLU | 1960 RLU | 0.49 relative to IGF11-16 | B8
10 | 2270 RLU | 209 RLU | 2480 RLU | 0.64 relative to IGF11-16 | B6

Target: T1, IGF-1 receptor on the cells of the …
Experiment: cell-based or functional assay
Remark: another data set of the same source

Row | Signal intensity (ratio to IGF11-16) at 16.7 nM, PathHunter | Binder
11 | 1.08 ratio to human chimeric IGF11-16 | B9
12 | 0.5 ratio to human chimeric IGF11-16 | B10
13 | 0.51 ratio to human chimeric IGF11-16 | B11
14 | 0.51 ratio to human chimeric IGF11-16 | B12
15 | 0.7 ratio to human chimeric IGF11-16 | B13

Target: T1, IGF-1 receptor on the cells of the …
Experiment: cell-based or functional assay
Remark: another data set of the same source

Row | Signal intensity ratio (compared to IGF11-16) at 16.7 nM, PathHunter | Binder
16 | 1 ratio to IGF11-16 | B1
17 | 0.6 ratio to IGF11-16 | B14
18 | 1.09 ratio to IGF11-16 | B15
19 | 0.54 ratio to IGF11-16 | B16
20 | 0.7 ratio to IGF11-16 | B17
21 | 0.56 ratio to IGF11-16 | B18
22 | 0.65 ratio to IGF11-16 | B19
23 | 0.55 ratio to IGF11-16 | B20
24 | 0.66 ratio to IGF11-16 | B6

Target: T1, IGF-1 receptor on the cells of the …
Experiment: cell-based or functional assay
Remark: another data set of the same source

Row | Signal activation EC50 vs IGF11-16, PathHunter | Signal activation Emax vs IGF11-16, PathHunter | Binder
25 | 2.2 ratio vs IGF11-16 | 1 ratio vs IGF11-16 | B21
26 | 2.9 ratio vs IGF11-16 | 1.1 ratio vs IGF11-16 | B22
27 | 54.4 ratio vs IGF11-16 | 4.8 ratio vs IGF11-16 | B23
28 | 2.3 ratio vs IGF11-16 | 0.9 ratio vs IGF11-16 | B24
29 | 2.4 ratio vs IGF11-16 | 0.9 ratio vs IGF11-16 | B25
30 | 2.7 ratio vs IGF11-16 | 0 ratio vs IGF11-16 | B26
31 | 2.5 ratio vs IGF11-16 | 1 ratio vs IGF11-16 | B27
32 | 3 ratio vs IGF11-16 | 1 ratio vs IGF11-16 | B28
33 | 0.5 ratio vs IGF11-16 | 0 ratio vs IGF11-16 | B29
